The labels stand for the following.
T1: human GIP receptor (human, UniProt P48546 22-466)
T1 sequence (looked up): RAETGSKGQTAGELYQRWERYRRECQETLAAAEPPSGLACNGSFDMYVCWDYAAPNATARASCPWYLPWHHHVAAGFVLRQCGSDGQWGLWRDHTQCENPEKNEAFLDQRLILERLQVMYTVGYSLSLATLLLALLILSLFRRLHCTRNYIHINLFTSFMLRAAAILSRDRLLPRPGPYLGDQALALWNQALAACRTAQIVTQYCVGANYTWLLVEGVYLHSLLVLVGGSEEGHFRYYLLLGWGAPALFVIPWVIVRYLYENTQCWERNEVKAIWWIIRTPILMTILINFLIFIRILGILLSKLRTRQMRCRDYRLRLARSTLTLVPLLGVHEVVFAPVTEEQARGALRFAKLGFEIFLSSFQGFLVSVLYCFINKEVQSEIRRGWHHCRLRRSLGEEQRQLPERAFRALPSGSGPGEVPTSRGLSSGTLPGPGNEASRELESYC

Bridge positions count the residues as written; N and C are the ends. Square brackets hold non-standard residues; d marks the D form. Ends that are not written are not given here. * marks the point of attachment. Acetyl(2-(4-imidazolyl)) = O=C(Cc1c[nH]cn1)*; Aib = CC(C)(N)C(=O)O A value given as a limit tells only on which side of the number the result lay.

The target of the first experiment is human GCG receptor (human, UniProt P47871 26-477). Nature of the experiment: cell-based or functional assay.
Sequence of human GCG receptor (P47871 26-477): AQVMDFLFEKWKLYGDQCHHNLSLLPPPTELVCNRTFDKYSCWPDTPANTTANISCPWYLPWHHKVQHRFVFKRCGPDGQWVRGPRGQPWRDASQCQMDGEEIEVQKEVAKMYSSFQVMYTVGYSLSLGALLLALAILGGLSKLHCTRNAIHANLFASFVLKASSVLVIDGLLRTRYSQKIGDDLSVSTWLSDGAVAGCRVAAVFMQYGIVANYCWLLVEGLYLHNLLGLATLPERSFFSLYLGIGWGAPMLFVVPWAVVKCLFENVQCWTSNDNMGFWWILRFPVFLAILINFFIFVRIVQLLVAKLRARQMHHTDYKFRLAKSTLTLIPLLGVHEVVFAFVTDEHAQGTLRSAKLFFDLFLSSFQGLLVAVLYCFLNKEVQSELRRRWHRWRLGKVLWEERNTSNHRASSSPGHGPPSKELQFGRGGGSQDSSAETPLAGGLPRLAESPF
Consider {Acetyl(2-(4-imidazolyl))}-[Aib]QGTFTSDYSKCLDEKRAKEFVQWLLDHHPSSGQPPPS (bridge 15-19) [triple agonist of SEQ ID NO: 74], for which the “In vitro activity compared to native-type peptide (%), vs Glucagon” value (from here on “In vitro activity … (%), vs Glucagon”) amounted to 0.9%.
Same read-out and setting: as for {Acetyl(2-(4-imidazolyl))}-[Aib]QGTFTSDYSKYLDECRAKEFVQWLLDHHPSSGQPPPS (bridge 15-19) [triple agonist of SEQ ID NO: 73], the figure is 5.4%; as for Y[Aib]QGTFTSDCSKYLDERAAKDFVQWLLDHHPSSGQPPPS (bridge 16-20) [triple agonist of SEQ ID NO: 72], 1%; as for Y[Aib]QGTFTSDYSKYLDEKRAKDFVQWLLDHHPSSGQPPPSC (bridge 16-20) [triple agonist of SEQ ID NO: 76], 47.6%.
Still for that read-out and setting: the result for Y[Aib]QGTFTSDYSKYLDECAAKDFVQWLLDHHPSSGQPPPS (also: ring formation (underlined residues), positions not given here) [triple agonist of SEQ ID NO: 67] reads 46.2%; that for {Acetyl(2-(4-imidazolyl))}-[Aib]EGTFTSDYSIAMDEIHQKDFVNWLLAQC (bridge 15-19) [triple agonist of SEQ ID NO: 83], 1.3%.
For H[Aib]EGTFTSDYSIAMDEIHQKDFVNWLLAQKC (bridge 16-20) [triple agonist of SEQ ID NO: 79], the “In vitro activity … (%), vs Glucagon” value came out at 4.9%.
Consider Y[Aib]QGTFTSDYSKCLDEKRAKDFVQWLLDHHPSSGQPPPS (bridge 16-20) [triple agonist of SEQ ID NO: 70], for which the “In vitro activity … (%), vs Glucagon” value was 71.3%.
Same read-out and setting: as for {Acetyl(2-(4-imidazolyl))}-[Aib]QGTFTSDYSKYLDEKRQKEFVQWLLNTKC (bridge 15-19) [triple agonist of SEQ ID NO: 88], the figure is 0.3%; as for {Acetyl(2-(4-imidazolyl))}-[Aib]QGTFTSDYSKYLDEKRQKEFVQWLLDTC (bridge 15-19) [triple agonist of SEQ ID NO: 82], 1.1%; as for Y[Aib]QGTFTSDYSKCLDEKAAKEFVQWLLDHHPSSGQPPPS (bridge 16-20) [triple agonist of SEQ ID NO: 68], 8.8%.
Turning to Y[Aib]QGTFTSDYSKYLDERACKDFVQWLLDHHPSSGQPPPS (bridge 16-20) [triple agonist of SEQ ID NO: 71], the “In vitro activity … (%), vs Glucagon” value was 12.7%.
The same measure, in the same setting: the result for {Acetyl(2-(4-imidazolyl))}-[Aib]QGTFTSDYSKYLDEKRQKEFVNWLLAQC (bridge 15-19) [triple agonist of SEQ ID NO: 86] reads 0.4%.

The target of the next experiment is T1, human GIP receptor. Description: cell-based or functional assay.
As for {Acetyl(2-(4-imidazolyl))}-[Aib]QGTFTSDYSKCLDEKRAKEFVQWLLDHHPSSGQPPPS (bridge 15-19) [triple agonist of SEQ ID NO: 74], the “In vitro activity compared to native-type peptide (%), vs GIP” value (from here on “In vitro activity … (%), vs GIP”) was 1%.
Same read-out and setting: as for {Acetyl(2-(4-imidazolyl))}-[Aib]QGTFTSDYSKYLDECRAKEFVQWLLDHHPSSGQPPPS (bridge 15-19) [triple agonist of SEQ ID NO: 73], the figure is 3%; as for Y[Aib]QGTFTSDCSKYLDERAAKDFVQWLLDHHPSSGQPPPS (bridge 16-20) [triple agonist of SEQ ID NO: 72], 1.6%.
Same read-out and setting: the result for Y[Aib]QGTFTSDYSKYLDEKRAKDFVQWLLDHHPSSGQPPPSC (bridge 16-20) [triple agonist of SEQ ID NO: 76] reads 11.7%; that for Y[Aib]QGTFTSDYSKYLDECAAKDFVQWLLDHHPSSGQPPPS (also: ring formation (underlined residues), positions not given here) [triple agonist of SEQ ID NO: 67], 39.8%; that for {Acetyl(2-(4-imidazolyl))}-[Aib]EGTFTSDYSIAMDEIHQKDFVNWLLAQC (bridge 15-19) [triple agonist of SEQ ID NO: 83], 0.4%.
The same measure, in the same setting: the result for H[Aib]EGTFTSDYSIAMDEIHQKDFVNWLLAQKC (bridge 16-20) [triple agonist of SEQ ID NO: 79] reads 1.4%.
For the molecule Y[Aib]QGTFTSDYSKCLDEKRAKDFVQWLLDHHPSSGQPPPS (bridge 16-20) [triple agonist of SEQ ID NO: 70], the “In vitro activity … (%), vs GIP” value was determined as 64.4%.
Consider {Acetyl(2-(4-imidazolyl))}-[Aib]QGTFTSDYSKYLDEKRQKEFVQWLLNTKC (bridge 15-19) [triple agonist of SEQ ID NO: 88], for which the “In vitro activity … (%), vs GIP” value is < 0.1%.
Still for that read-out and setting: the result for {Acetyl(2-(4-imidazolyl))}-[Aib]QGTFTSDYSKYLDEKRQKEFVQWLLDTC (bridge 15-19) [triple agonist of SEQ ID NO: 82] reads < 0.1%; that for Y[Aib]QGTFTSDYSKCLDEKAAKEFVQWLLDHHPSSGQPPPS (bridge 16-20) [triple agonist of SEQ ID NO: 68], 107%.
On the same count and under the same terms, the result for Y[Aib]QGTFTSDYSKYLDERACKDFVQWLLDHHPSSGQPPPS (bridge 16-20) [triple agonist of SEQ ID NO: 71] reads 94.7%; that for {Acetyl(2-(4-imidazolyl))}-[Aib]QGTFTSDYSKYLDEKRQKEFVNWLLAQC (bridge 15-19) [triple agonist of SEQ ID NO: 86], 0.2%.

The target in another experiment is human GLP-1 receptor (human, UniProt P43220 24-463). Description: cell-based or functional assay.
As for {Acetyl(2-(4-imidazolyl))}-[Aib]QGTFTSDYSKCLDEKRAKEFVQWLLDHHPSSGQPPPS (bridge 15-19) [triple agonist of SEQ ID NO: 74], the “In vitro activity compared to native-type peptide (%), vs GLP-1” value (“In vitro activity … (%), vs GLP-1” below) amounted to 12.9%.
The same measure, in the same setting: the result for {Acetyl(2-(4-imidazolyl))}-[Aib]QGTFTSDYSKYLDECRAKEFVQWLLDHHPSSGQPPPS (bridge 15-19) [triple agonist of SEQ ID NO: 73] reads 22.6%.
On to Y[Aib]QGTFTSDCSKYLDERAAKDFVQWLLDHHPSSGQPPPS (bridge 16-20) [triple agonist of SEQ ID NO: 72], for which the “In vitro activity … (%), vs GLP-1” value amounted to 11.5%.
On to Y[Aib]QGTFTSDYSKYLDEKRAKDFVQWLLDHHPSSGQPPPSC (bridge 16-20) [triple agonist of SEQ ID NO: 76], for which the “In vitro activity … (%), vs GLP-1” value is 10.3%.
With Y[Aib]QGTFTSDYSKYLDECAAKDFVQWLLDHHPSSGQPPPS (also: ring formation (underlined residues), positions not given here) [triple agonist of SEQ ID NO: 67], the “In vitro activity … (%), vs GLP-1” value amounted to 28.5%.
On the same count and under the same terms, as for {Acetyl(2-(4-imidazolyl))}-[Aib]EGTFTSDYSIAMDEIHQKDFVNWLLAQC (bridge 15-19) [triple agonist of SEQ ID NO: 83], the figure is 47.3%; as for H[Aib]EGTFTSDYSIAMDEIHQKDFVNWLLAQKC (bridge 16-20) [triple agonist of SEQ ID NO: 79], 41.5%; as for Y[Aib]QGTFTSDYSKCLDEKRAKDFVQWLLDHHPSSGQPPPS (bridge 16-20) [triple agonist of SEQ ID NO: 70], 15.1%.
With {Acetyl(2-(4-imidazolyl))}-[Aib]QGTFTSDYSKYLDEKRQKEFVQWLLNTKC (bridge 15-19) [triple agonist of SEQ ID NO: 88], the “In vitro activity … (%), vs GLP-1” value was 9.6%.
For the molecule {Acetyl(2-(4-imidazolyl))}-[Aib]QGTFTSDYSKYLDEKRQKEFVQWLLDTC (bridge 15-19) [triple agonist of SEQ ID NO: 82], the “In vitro activity … (%), vs GLP-1” value was 9.5%.
As to Y[Aib]QGTFTSDYSKCLDEKAAKEFVQWLLDHHPSSGQPPPS (bridge 16-20) [triple agonist of SEQ ID NO: 68], the “In vitro activity … (%), vs GLP-1” value was 27.9%.
Take Y[Aib]QGTFTSDYSKYLDERACKDFVQWLLDHHPSSGQPPPS (bridge 16-20) [triple agonist of SEQ ID NO: 71]: the “In vitro activity … (%), vs GLP-1” value is 90.1%.
Same read-out and setting: as for {Acetyl(2-(4-imidazolyl))}-[Aib]QGTFTSDYSKYLDEKRQKEFVNWLLAQC (bridge 15-19) [triple agonist of SEQ ID NO: 86], the figure is 28.4%.

These data come from US20230381333A1 (HANMI PHARM, published 2023).
